According to the supplement of paper PMC10724198:
± gives the standard deviation of the averaged measurements.

Columns and labels:
[1] = test system: Saccharomyces cerevisiae; test: protein stability index of tFT-peptide fusion (C-terminal peptide) (PSI (0-1 scale)); higher = more stable (slower turnover); settings: genetic background: wild type; temperature: 30 C
[2] = test system: Saccharomyces cerevisiae; test: as above
Protocol: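 MPS profiling in S. cerevisiae of the tFT-X12 degron library: putative degron peptides plus stable controls, 12 aa, fused to the C-terminus of a sfGFP-mCherry timer. Cells are FACS-sorted into 8 mCherry/sfGFP bins and deep-sequenced. PSI runs from 0 (unstable) to 1 (stable). Backgrounds are wild type, das1Δ and doa10Δ at 30 °C, and wild type, das1Δ, cdc34-1 and cdc53-1 at 37 °C; 2-3 technical replicates each.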

[3] = genetic background: cdc34-1, temperature: 37 C
[4] = genetic background: cdc53-1, temperature: 37 C
[5] = genetic background: das1 deletion, temperature: 30 C
[6] = genetic background: das1 deletion, temperature: 37 C
[7] = genetic background: doa10 deletion, temperature: 30 C
[8] = genetic background: wild type, temperature: 30 C
[9] = genetic background: wild type, temperature: 37 C
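Note: PSI is a weighted mean of sequencing reads over stability bins, variants kept only with over 10 reads, mCherry proximal and sfGFP distal, peptide attached via GGGS linker.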

Sequence	protein stability index [1]	protein stability index [2, 3]	protein stability index [2, 4]	protein stability index [2, 5]	protein stability index [2, 6]	protein stability index [2, 7]	protein stability index [2, 8]	protein stability index [2, 9]
GLACNPQLLRWT	0.756 ± 0.051	0.692 ± 0.014	0.7433 ± 0.0064	0.653 ± 0.018	0.7437 ± 0.0035	0.665 ± 0.035	0.654 ± 0.027	0.7175 ± 0.0069
LFSVFSLVLFIF	0.427 ± 0.091	0.338 ± 0.0079	0.413 ± 0.011	0.34 ± 0.029	0.501 ± 0.0086	0.316 ± 0.017	0.272 ± 0.023	0.454 ± 0.0073
LSLWLFRILSVR	0.4439 ± 0.0026	0.4052 ± 0.0027	0.451 ± 0.017	0.335 ± 0.023	0.4987 ± 0.0027	0.342 ± 0.0045	0.341 ± 0.012	0.4906 ± 0.0043
IFSGCRIALSVF	0.181 ± 0.0085	0.0412 ± 0.013	0.052 ± 0.021	0.188 ± 0.018	0.165 ± 0.012	0.104 ± 0.0034	0.116 ± 0.01	0.0944 ± 0.039
VARWVYALGLLC	0.312 ± 0.013	0.581 ± 0.035	0.6488 ± 0.0027	0.545 ± 0.028	0.677 ± 0.025	0.2 ± 0.0064	0.221 ± 0.011	0.377 ± 0.013
PWEYSSQLVLVI	0.281 ± 0.022	0.0478 ± 0.02	0.0865 ± 0.011	0.179 ± 0.025	0.2067 ± 0.0011	0.155 ± 0.0084	0.177 ± 0.023	0.159 ± 0.021
EKHRRYAITKFI	0.28 ± 0.043	0.666 ± 0.019	0.694 ± 0.052	0.659 ± 0.027	0.732 ± 0.025	0.155 ± 0.0053	0.196 ± 0.058	0.407 ± 0.1
TCPFTIHRLKVG	0.238 ± 0.077	0.63 ± 0.01	0.7483 ± 0.0035	0.617 ± 0.017	0.7458 ± 0.0033	0.118 ± 0.018	0.137 ± 0.028	0.218 ± 0.012
LCYFFFISLFLG	0.328 ± 0.0056	0.628 ± 0.032	0.572 ± 0.014	0.465 ± 0.021	0.55 ± 0.0089	0.2248 ± 0.0011	0.26 ± 0.023	0.403 ± 0.0052
GLVVVVRLQYSP	0.404 ± 0.027	0.309 ± 0.027	0.424 ± 0.02	0.329 ± 0.017	0.458 ± 0.011	0.27482 ± 1.4e-06	0.299 ± 0.016	0.4415 ± 0.0014
RGPAYATCHLLC	0.232 ± 0.028	0.599 ± 0.041	0.7316 ± 0.0053	0.645 ± 0.012	0.75 ± 0.0094	0.119 ± 0.013	0.141 ± 0.022	0.257 ± 0.015
FCFVRGLLFLFF	0.442 ± 0.06	0.476 ± 0.0094	0.574 ± 0.065	0.383 ± 0.035	0.5423 ± 0.0025	0.386 ± 0.013	0.36 ± 0.034	0.506 ± 0.023
RVVNRWGVCFLG	0.231 ± 0.0097	0.6 ± 0.0065	0.7178 ± 0.0067	0.639 ± 0.014	0.733 ± 0.021	0.124 ± 0.014	0.131 ± 0.0093	0.199 ± 0.015
SIWVGSRFRWVV	0.35 ± 0.062	0.642 ± 0.0088	0.7361 ± 0.0011	0.665 ± 0.034	0.7748 ± 0.0015	0.134 ± 0.017	0.134 ± 0.021	0.344 ± 0.052
FFLVILSWWVGE	0.242 ± 0.017	0.182 ± 0.023	0.225 ± 0.056	0.197 ± 0.036	0.345 ± 0.028	0.185 ± 0.0019	0.205 ± 0.052	0.31 ± 0.017
FVCWGSLILCGG	0.264 ± 0.012	0.151 ± 0.0074	0.1833 ± 0.0012	0.19 ± 0.028	0.29 ± 0.0062	0.1516 ± 0.00087	0.181 ± 0.027	0.258 ± 0.0085
MLLFVSCCVFLF	0.206 ± 0.063	0.134 ± 0.021	0.185 ± 0.011	0.202 ± 0.038	0.292 ± 0.0093	0.157 ± 0.0093	0.169 ± 0.032	0.219 ± 0.019
FLSRVVLVVLLV	0.288 ± 0.026	0.258 ± 0.018	0.333 ± 0.006	0.245 ± 0.029	0.43 ± 0.02	0.196 ± 0.015	0.215 ± 0.034	0.339 ± 0.029
PRIVLFLRLHSN	0.21 ± 0.0069	0.555 ± 0.082	0.651 ± 0.042	0.512 ± 0.014	0.6891 ± 0.002	0.107 ± 0.029	0.118 ± 0.02	0.2184 ± 0.0019
